Experimental data from patent publication US20250205358A1, “PHOTOACTIVATABLE NANOPARTICLES AND USES THEREOF AS AGENTS FOR IMMUNOTHERAPY COMBINATIONS” (Board of Regents, The University of Texas System, priority 2023, published 2025).

B1: mIFN-γ: mouse Interferon Gamma Protein (Sino Biological) (protein, UniProt P01580 23-155, looked up)
Interferon gamma: HGTVIESLESLNNYFNSSGIDVEEKSLFLDIWRNWQKDGDMKILQSQIISFYLRLFEVLKDNQAISNNISVIESHLITTFFSNSKAKKDAFMSIAKFEVNNPQVQRQAFNELIRVVHQLLPESSLRKRKRSRC

How the values were obtained:
PDAC = PDAC patients, standard of care; cited from earlier work
PD-L1 = assay: Fold increase in PD-L1 expression with mIFN-γ (flow cytometry); assay type: cell-based, murine; conditions: 40 ng/ml, 24 h
Method: Fold increase in PD-L1 expression and binding specificity of iTPALs: Confluent AT84, LLC, MC38, ID8, CT1BA5 and BMFA3 cells were washed in PBS, trypsinized, and collected in their respective media. The cells were counted and diluted to seed 1.5×10^5 cells per well in a 6 well plate (Corning) overnight. The next day, the media was replaced with fresh media containing 40 ng/ml of mIFN-γ and incubated for an additional 24 h. The cells were then trypsinized, dispersed in their respective media and counted using a cell counter (Bio-Rad). Cells were diluted in their respective media to obtain a concentration of 5×10^5 cells/ml. Then, 100 μl of the counted cells were placed in the 1.5 ml microcentrifuge tubes. To calculate the fold increase in PD-L1 expression, 100 μl of 40 µg/ml α-PD-L1 equivalent of α-PD-L1-AF488 were then added to the cells whereas to monitor the binding specificity of iTPALs (17α), 100 μl of 500 nM BPD-PC equivalent of either 100 μl PALs or TPALs (17α) added to the cells and incubated at 37° C. for 30 mins in the dark. The cells were then pelleted by […] for 5 mins at 1000×g, and the supernatants containing free unbound PALs and iTPALs (17α) were discarded. The cells were then resuspended in 300 μl of FACS buffer and transferred into flow cytometry tubes. For each condition, 10,000 cells were analyzed using a BD Fortessa flow cytometry analyzer with a 405 nm laser/710 nm bandpass detector pair for BPD-PC fluorescence and a 488 nm laser/530 nm detector pair for AF488 fluorescence. The data was then analyzed using FlowJo to calculate the median fluorescence of BPD-PC and AF488. The increase in PD-L1 expression after treating the cells with mIFN-γ was calculated as shown in Equation 1 below and the binding specificity of iTPALs (17α) was calculated as shown in Equation 2 below.

Row | Molecule | Overall survival (PDAC) [months] | Increase in PD-L1 expression (PD-L1; AT84 head and neck cancer cells) [fold] | Increase in PD-L1 expression (PD-L1; BMFA3 PDAC cells) [fold] | Increase in PD-L1 expression (PD-L1; CT1BA5 PDAC cells) [fold] | Increase in PD-L1 expression (PD-L1; ID8 ovarian cancer cells) [fold] | Increase in PD-L1 expression (PD-L1; LLC lung cancer cells) [fold] | Increase in PD-L1 expression (PD-L1; MC38 colon cancer cells) [fold]
1 | FOLFIRINOX | 11.1 | – | – | – | – | – | –
2 | B1 | – | 1.8 | 2.5 | 1.5 | 2.9 | 1.4 | 1.8
